Publication PMC5485859

Legend:
Conditions in all cases: reference: WT HSP90α, after IR; sites T5,T7
[1] = molecular target: glucocorticoid receptor (GR) (UniProt P06537); assay: anti-GR IP, anti-Flag blot
androgen receptor (AR) = androgen receptor (AR) (UniProt P19091); assay: co-immunoprecipitation
[2] = molecular target: endothelial nitric oxide synthase (eNOS) (UniProt P70313); assay: co-immunoprecipitation
liver kinase B1 (LKB1) = liver kinase B1 (LKB1) (UniProt Q9WTK7); assay: anti-LKB1 IP, anti-Flag blot

Measured: binding against the reference

HSP90α (from UniProt P07901) T5,7A HSP90α, after IR
stronger: all assays above
